{
  "source": "patent US20080227128",
  "key": {"MEK substrate (MEKSBS)": {"test_system": "T1, MEK substrate (MEKSBS)", "T1 sequence": "XDPDHDHTGFLTEYVATRW"}, "KPLGSDDSLADY peptide": {"test_system": "T2, KPLGSDDSLADY peptide", "T2 sequence": "KPLGSDDSLADY"}},
  "data": [
    {"substance": "purified MEK", "values": [
      {"measurement": "phosphorylation in an in vitro kinase assay", "setting": "MEK substrate (MEKSBS)", "value": "are both phosphorylated in the presence of purified MEK in an in vitro kinase assay"},
      {"measurement": "phosphorylation in an in vitro kinase assay", "setting": "KPLGSDDSLADY peptide", "value": "are both phosphorylated in the presence of purified MEK in an in vitro kinase assay"}
    ]}
  ]
}
